B1: TRIM9 (parent)
chain: PRNSCITCPQCHRSLILDDRGLRG

Variants of: B1
Experiment: protein stability index of a GFP-peptide fusion (GPS, HEK-293T) (PSI 1-6); higher = more stable
Settings: c terminus: a fixed tail appended
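Also: lentivirally expressed fusions sorted by FACS into six bins by GFP to DsRed ratio, PSI derived from sequencing read proportions per bin multiplied by bin number.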

**Q.** Which protein stability index does the source give for PRNSCITCPQCHRSLILDDRGLRP here?
**A.** The protein stability index was 2.03.

**Q.** For PRNSCITCPQCHRSLILDDRGLRM, which protein stability index is on record?
**A.** The protein stability index was 2.17.

**Q.** For PRNSCITCPQCHRSLILDDRGLRD, which protein stability index is on record?
**A.** The protein stability index was 2.08.

**Q.** Which protein stability index does the source give for PRNSCITCPQCHRSLILDDRGLRQ here?
**A.** Its protein stability index is 2.28.

**Q.** With PRNSCITCPQCHRSLILDDRGLRC as the variant, how does the protein stability index read?
**A.** The protein stability index was 2.35.

**Q.** Which protein stability index does the source give for PRNSCITCPQCHRSLILDDRGLRF here?
**A.** The protein stability index was 2.34.

**Q.** Which protein stability index does the source give for PRNSCITCPCCHRSLILDDRGLRG here?
**A.** The protein stability index was 1.95.

**Q.** Which protein stability index does the source give for PRNSCITCPDCHRSLILDDRGLRG here?
**A.** The protein stability index was 2.49.

**Q.** Which protein stability index does the source give for PRNSCITCPLCHRSLILDDRGLRG here?
**A.** Its protein stability index is 1.89.

**Q.** For PRNSCITCPTCHRSLILDDRGLRG, which protein stability index is on record?
**A.** Its protein stability index is 2.52.

**Q.** With PRNSCITTPQCHRSLILDDRGLRG as the variant, how does the protein stability index read?
**A.** Its protein stability index is 3.33.

**Q.** For PRNSCITAPQCHRSLILDDRGLRG, which protein stability index is on record?
**A.** Its protein stability index is 2.84.

**Q.** With PRNSCITCPQCHRSLILDDRGLHG as the variant, how does the protein stability index read?
**A.** The protein stability index was 2.05.

**Q.** With PRNSCITCPQCHRSLILDDRGLPG as the variant, how does the protein stability index read?
**A.** Its protein stability index is 2.42.

**Q.** With PRNSCITCPQCHRSLILDSRGLRG as the variant, how does the protein stability index read?
**A.** The protein stability index was 2.11.

**Q.** For PRNSCITCPQCHRSLILDLRGLRG, which protein stability index is on record?
**A.** The protein stability index was 1.41.

**Q.** For PRNSCITCPQCHRSLILDHRGLRG, which protein stability index is on record?
**A.** The protein stability index was 1.9.

**Q.** With PRNSCITCPQCHRSLILDRRGLRG as the variant, how does the protein stability index read?
**A.** The protein stability index was 1.84.

**Q.** For PRNSCITCPQCHRSLILDFRGLRG, which protein stability index is on record?
**A.** The protein stability index was 1.72.

**Q.** For PRNSCITCPQCHRSLILDMRGLRG, which protein stability index is on record?
**A.** The protein stability index was 2.24.

**Q.** With PRNSCDTCPQCHRSLILDDRGLRG as the variant, how does the protein stability index read?
**A.** Its protein stability index is 2.15.

**Q.** Which protein stability index does the source give for PRNSCHTCPQCHRSLILDDRGLRG here?
**A.** Its protein stability index is 2.46.

**Q.** With PRNSCQTCPQCHRSLILDDRGLRG as the variant, how does the protein stability index read?
**A.** The protein stability index was 2.16.

**Q.** For PRNSCGTCPQCHRSLILDDRGLRG, which protein stability index is on record?
**A.** The protein stability index was 1.93.

**Q.** Which protein stability index does the source give for PRNSCITCNQCHRSLILDDRGLRG here?
**A.** Its protein stability index is 1.54.

**Q.** With PRNSCITCFQCHRSLILDDRGLRG as the variant, how does the protein stability index read?
**A.** Its protein stability index is 1.54.

**Q.** Which protein stability index does the source give for PRNSCITCSQCHRSLILDDRGLRG here?
**A.** Its protein stability index is 2.16.

**Q.** With PRNICITCPQCHRSLILDDRGLRG as the variant, how does the protein stability index read?
**A.** The protein stability index was 2.52.

**Q.** Which protein stability index does the source give for PRNHCITCPQCHRSLILDDRGLRG here?
**A.** The protein stability index was 2.14.

**Q.** Which protein stability index does the source give for PRNTCITCPQCHRSLILDDRGLRG here?
**A.** Its protein stability index is 1.73.

**Q.** For IRNSCITCPQCHRSLILDDRGLRG, which protein stability index is on record?
**A.** The protein stability index was 2.33.

**Q.** With WRNSCITCPQCHRSLILDDRGLRG as the variant, how does the protein stability index read?
**A.** The protein stability index was 1.94.

**Q.** For MRNSCITCPQCHRSLILDDRGLRG, which protein stability index is on record?
**A.** Its protein stability index is 1.76.

**Q.** With ARNSCITCPQCHRSLILDDRGLRG as the variant, how does the protein stability index read?
**A.** The protein stability index was 1.82.

**Q.** For GRNSCITCPQCHRSLILDDRGLRG, which protein stability index is on record?
**A.** Its protein stability index is 1.71.

**Q.** For PRNSCITCPQCHRSLILDDRELRG, which protein stability index is on record?
**A.** Its protein stability index is 2.93.

**Q.** With PRNSCITCPQCHRSLILDDRFLRG as the variant, how does the protein stability index read?
**A.** The protein stability index was 1.88.

**Q.** For PRNSCITCPQCHRSLILDDRYLRG, which protein stability index is on record?
**A.** Its protein stability index is 2.24.

**Q.** For PRNSCITCPQCHRSLILDDRPLRG, which protein stability index is on record?
**A.** The protein stability index was 2.27.

**Q.** For PRNSCITCPQCHRSLILDDRTLRG, which protein stability index is on record?
**A.** Its protein stability index is 1.57.

**Q.** For PRNSCITCPQCHRSLILVDRGLRG, which protein stability index is on record?
**A.** The protein stability index was 1.85.

**Q.** Which protein stability index does the source give for PRNSCITCPQCHRSLILYDRGLRG here?
**A.** The protein stability index was 2.36.

**Q.** Which protein stability index does the source give for PRNSCITCPQCHRSLILQDRGLRG here?
**A.** The protein stability index was 1.96.

**Q.** For PRNSCITCPQCHRSLILEDRGLRG, which protein stability index is on record?
**A.** Its protein stability index is 1.71.

**Q.** With PRNSCITCPQSHRSLILDDRGLRG as the variant, how does the protein stability index read?
**A.** Its protein stability index is 2.43.

**Q.** With PRNSCITCPQAHRSLILDDRGLRG as the variant, how does the protein stability index read?
**A.** Its protein stability index is 2.29.

**Q.** For PRNSCITCPQIHRSLILDDRGLRG, which protein stability index is on record?
**A.** The protein stability index was 2.98.

**Q.** With PRNSCITCPQWHRSLILDDRGLRG as the variant, how does the protein stability index read?
**A.** Its protein stability index is 3.38.

**Q.** With PRNSCITCPQKHRSLILDDRGLRG as the variant, how does the protein stability index read?
**A.** Its protein stability index is 2.62.

**Q.** With PRNSCITCPQFHRSLILDDRGLRG as the variant, how does the protein stability index read?
**A.** Its protein stability index is 2.38.

**Q.** For PRNSCITCPQCHRSLILDDRGIRG, which protein stability index is on record?
**A.** The protein stability index was 2.36.

**Q.** For PRNSCITCPQCHRSLILDDRGVRG, which protein stability index is on record?
**A.** The protein stability index was 2.55.

**Q.** With PRNSCITCPQCHRSLILDDRGHRG as the variant, how does the protein stability index read?
**A.** The protein stability index was 2.49.

**Q.** For PRNSCITCPQCHRSLILDDRGTRG, which protein stability index is on record?
**A.** The protein stability index was 3.33.

**Q.** For PRNSCITCPQCHRSLILDDRGGRG, which protein stability index is on record?
**A.** The protein stability index was 2.3.

**Q.** With PRNSCITCPQCHRSGILDDRGLRG as the variant, how does the protein stability index read?
**A.** The protein stability index was 1.64.

**Q.** Which protein stability index does the source give for PRNSCITCPQCHRSDILDDRGLRG here?
**A.** Its protein stability index is 2.51.

**Q.** Which protein stability index does the source give for PRVSCITCPQCHRSLILDDRGLRG here?
**A.** The protein stability index was 1.83.

**Q.** With PRCSCITCPQCHRSLILDDRGLRG as the variant, how does the protein stability index read?
**A.** The protein stability index was 1.8.

**Q.** For PRASCITCPQCHRSLILDDRGLRG, which protein stability index is on record?
**A.** The protein stability index was 2.36.

**Q.** Which protein stability index does the source give for PRNSCITCPQCHRSLDLDDRGLRG here?
**A.** The protein stability index was 2.64.

**Q.** For PRNSCITCPQCHRSLSLDDRGLRG, which protein stability index is on record?
**A.** Its protein stability index is 2.97.

**Q.** For PRNSCITCPQCHRSLMLDDRGLRG, which protein stability index is on record?
**A.** The protein stability index was 2.58.

**Q.** With PRNSCITCPQCHRSLPLDDRGLRG as the variant, how does the protein stability index read?
**A.** The protein stability index was 2.42.

**Q.** Which protein stability index does the source give for PRNSCITCPQCHRSLYLDDRGLRG here?
**A.** The protein stability index was 2.58.

**Q.** For PRNSCITCPQCHRSLELDDRGLRG, which protein stability index is on record?
**A.** The protein stability index was 3.16.

**Q.** With PRNSHITCPQCHRSLILDDRGLRG as the variant, how does the protein stability index read?
**A.** Its protein stability index is 1.77.

**Q.** Which protein stability index does the source give for PRNSGITCPQCHRSLILDDRGLRG here?
**A.** Its protein stability index is 2.75.

**Q.** With PRNSNITCPQCHRSLILDDRGLRG as the variant, how does the protein stability index read?
**A.** The protein stability index was 1.99.

**Q.** For PRNSTITCPQCHRSLILDDRGLRG, which protein stability index is on record?
**A.** Its protein stability index is 2.02.

**Q.** For PRNSCITCPQCKRSLILDDRGLRG, which protein stability index is on record?
**A.** The protein stability index was 2.69.

**Q.** For PRNSCITCPQCFRSLILDDRGLRG, which protein stability index is on record?
**A.** Its protein stability index is 2.2.

**Q.** Which protein stability index does the source give for PANSCITCPQCHRSLILDDRGLRG here?
**A.** Its protein stability index is 1.58.

**Q.** With PNNSCITCPQCHRSLILDDRGLRG as the variant, how does the protein stability index read?
**A.** Its protein stability index is 2.44.

**Q.** For PDNSCITCPQCHRSLILDDRGLRG, which protein stability index is on record?
**A.** The protein stability index was 2.34.

**Q.** For PKNSCITCPQCHRSLILDDRGLRG, which protein stability index is on record?
**A.** Its protein stability index is 2.19.

**Q.** With PRNSCITCPQCHASLILDDRGLRG as the variant, how does the protein stability index read?
**A.** Its protein stability index is 3.91.

**Q.** Which protein stability index does the source give for PRNSCITCPQCHFSLILDDRGLRG here?
**A.** Its protein stability index is 2.09.

**Q.** For PRNSCITCPQCHPSLILDDRGLRG, which protein stability index is on record?
**A.** The protein stability index was 1.97.

**Q.** Which protein stability index does the source give for PRNSCITCPQCHQSLILDDRGLRG here?
**A.** The protein stability index was 2.63.

**Q.** Which protein stability index does the source give for PRNSCITCPQCHNSLILDDRGLRG here?
**A.** The protein stability index was 2.49.

**Q.** Which protein stability index does the source give for PRNSCITCPQCHRMLILDDRGLRG here?
**A.** The protein stability index was 2.27.

**Q.** With PRNSCITCPQCHRTLILDDRGLRG as the variant, how does the protein stability index read?
**A.** The protein stability index was 2.71.

**Q.** With PRNSCITCPQCHRDLILDDRGLRG as the variant, how does the protein stability index read?
**A.** Its protein stability index is 2.4.

**Q.** Which protein stability index does the source give for PRNSCICCPQCHRSLILDDRGLRG here?
**A.** Its protein stability index is 2.05.

**Q.** With PRNSCIMCPQCHRSLILDDRGLRG as the variant, how does the protein stability index read?
**A.** Its protein stability index is 2.36.

**Q.** With PRNSCITCPQCHRSLILDDWGLRG as the variant, how does the protein stability index read?
**A.** Its protein stability index is 1.44.

**Q.** Which protein stability index does the source give for PRNSCITCPQCHRSLILDDDGLRG here?
**A.** Its protein stability index is 2.53.

**Q.** With PRNSCITCPQCHRSLILDDAGLRG as the variant, how does the protein stability index read?
**A.** The protein stability index was 1.98.

**Q.** For PRNSCITCPQCHRSLIWDDRGLRG, which protein stability index is on record?
**A.** The protein stability index was 1.56.

**Q.** For PRNSCITCPQCHRSLIADDRGLRG, which protein stability index is on record?
**A.** The protein stability index was 1.72.

**Q.** For PRNSCITCPQCHRSLIMDDRGLRG, which protein stability index is on record?
**A.** The protein stability index was 2.21.

**Q.** For PRNSCITCPQCHRSLIIDDRGLRG, which protein stability index is on record?
**A.** The protein stability index was 2.05.

**Q.** Which protein stability index does the source give for PRNSCITCPQCHRSLIVDDRGLRG here?
**A.** Its protein stability index is 2.19.

From the supplement of paper PMC10567573
